Where “and” joins values, the source holds several entries; their conditions need not be identical. Equal values may be shown once. Read-outs that look alike come from different tables or passages of the source.
Key:
[1] = molecular target: ICP receptor sites on brush border membrane vesicles of Heliothis virescens (Heliothis virescens)
[2] = molecular target: ICP receptor sites on brush border membrane vesicles of Manduca sexta (reference, non-selected strain) (Manduca sexta)
[3] = molecular target: ICP receptor sites on brush border membrane vesicles of Heliothis virescens (Heliothis virescens); assay: 125I-toxin competition binding on BBMV, filtration, LIGAND analysis
[4] = molecular target: ICP receptor sites on brush border membrane vesicles of Manduca sexta (reference, non-selected strain) (Manduca sexta); assay: as above
[5] = molecular target: ICP receptor sites on brush border membrane vesicles of Pieris brassicae (Pieris brassicae); assay: 125I-toxin competition binding on P. brassicae BBMV, LIGAND analysis
[6] = molecular target: ICP receptor sites on brush border membrane vesicles of Manduca sexta (reference, non-selected strain) (Manduca sexta); remark: listed apart in the source
[7] = molecular target: ICP receptor sites on brush border membrane vesicles of the sensitive Plutella xylostella strain PxS (Plutella xylostella); assay: cell-based or functional assay; design: unit not given beside the values
[8] = molecular target: ICP receptor sites on brush border membrane vesicles of the Dipel-resistant Plutella xylostella strain PxR (Plutella xylostella); assay: cell-based or functional assay; design: unit not given beside the values
[9] = molecular target: ICP receptor sites on brush border membrane vesicles of Manduca sexta (reference, non-selected strain) (Manduca sexta); remark: listed apart in the source
[10] = molecular target: ICP receptor sites on brush border membrane vesicles of the sensitive Plutella xylostella strain PxS (Plutella xylostella); assay: 125I-toxin binding on P. xylostella BBMV
[11] = molecular target: ICP receptor sites on brush border membrane vesicles of the Dipel-resistant Plutella xylostella strain PxR (Plutella xylostella); assay: 125I-toxin binding on P. xylostella BBMV
[12] = molecular target: ICP receptor sites on brush border membrane vesicles of Manduca sexta (reference, non-selected strain) (Manduca sexta); remark: listed apart in the source
[13] = molecular target: ICP receptor sites on brush border membrane vesicles of the Bt2/Bt18 selected Manduca sexta strain (Manduca sexta)
[14] = molecular target: ICP receptor sites on brush border membrane vesicles of the Bt18 selected Manduca sexta strain (Manduca sexta); assay: cell-based or functional assay
[15] = molecular target: ICP receptor sites on brush border membrane vesicles of the Bt2 selected Manduca sexta strain (Manduca sexta); assay: cell-based or functional assay
[16] = molecular target: ICP receptor sites on brush border membrane vesicles of Manduca sexta (reference, non-selected strain) (Manduca sexta); assay: cell-based or functional assay
[17] = molecular target: ICP receptor sites on brush border membrane vesicles of the Bt18 selected Manduca sexta strain (Manduca sexta)

Bt3 toxin, sequence (P0A366 29-618 limits assumed): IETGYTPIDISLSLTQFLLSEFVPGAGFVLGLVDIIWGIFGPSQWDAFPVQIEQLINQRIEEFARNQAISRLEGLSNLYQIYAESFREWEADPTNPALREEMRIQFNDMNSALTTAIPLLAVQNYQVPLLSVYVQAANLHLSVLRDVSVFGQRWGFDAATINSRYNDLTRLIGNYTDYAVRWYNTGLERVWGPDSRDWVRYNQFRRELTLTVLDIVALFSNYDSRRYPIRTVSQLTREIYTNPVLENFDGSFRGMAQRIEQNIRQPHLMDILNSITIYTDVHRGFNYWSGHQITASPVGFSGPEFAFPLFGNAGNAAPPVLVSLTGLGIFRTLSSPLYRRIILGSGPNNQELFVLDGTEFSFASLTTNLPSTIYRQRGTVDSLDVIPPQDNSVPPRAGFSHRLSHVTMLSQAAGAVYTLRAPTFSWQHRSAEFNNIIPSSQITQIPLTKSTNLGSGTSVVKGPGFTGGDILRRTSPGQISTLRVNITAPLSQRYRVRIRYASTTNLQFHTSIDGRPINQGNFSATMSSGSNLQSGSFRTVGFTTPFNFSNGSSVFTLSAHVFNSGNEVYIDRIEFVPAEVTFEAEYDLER
Bt14 toxin, sequence (P0A374 30-647 limits assumed): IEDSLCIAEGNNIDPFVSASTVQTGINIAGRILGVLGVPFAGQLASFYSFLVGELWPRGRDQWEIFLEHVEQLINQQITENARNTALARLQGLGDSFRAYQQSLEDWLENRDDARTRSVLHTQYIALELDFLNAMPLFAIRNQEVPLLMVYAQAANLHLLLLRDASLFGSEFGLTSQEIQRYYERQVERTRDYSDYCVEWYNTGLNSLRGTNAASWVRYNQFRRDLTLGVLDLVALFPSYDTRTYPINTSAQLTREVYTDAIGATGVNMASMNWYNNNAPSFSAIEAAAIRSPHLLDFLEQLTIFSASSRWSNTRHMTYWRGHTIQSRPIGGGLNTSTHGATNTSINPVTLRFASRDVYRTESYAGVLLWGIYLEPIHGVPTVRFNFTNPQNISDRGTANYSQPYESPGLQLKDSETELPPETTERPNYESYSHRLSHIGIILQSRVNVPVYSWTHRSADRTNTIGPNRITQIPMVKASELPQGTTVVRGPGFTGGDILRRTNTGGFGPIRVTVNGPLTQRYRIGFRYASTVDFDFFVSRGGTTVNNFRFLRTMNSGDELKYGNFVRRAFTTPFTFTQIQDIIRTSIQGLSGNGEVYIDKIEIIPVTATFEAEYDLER

Substance	amount bound with labeled toxin alone (cpm) [1] [cpm]	amount bound with labeled toxin alone (cpm) [2] [cpm]	Kd [3] [nM]	Rt (binding site concentration) (pmol/mg vesicle protein) [3]	Kd [4] [nM]	Rt (binding site concentration) (pmol/mg vesicle protein) [4]	Kd [5] [nM]	Rt (binding site concentration) (pmol/mg vesicle protein) [5]	LC50 (larval mortality, artificial diet) (ng protein per cm^2 of artificial diet) [7]	LC50 (larval mortality, artificial diet) (ng protein per cm^2 of artificial diet) [8]	Kd [10] [nM]	Rt (binding site concentration) (pmol/mg protein) [10]	also measured
Bt73 toxin (from UniProt P05068 29-623) (ligand)	6610	2380	0.8	19.5	0.6	4	–	–	–	–	–	–	–
Bt14 toxin (from UniProt P0A374 30-647) (ligand)	–	–	–	–	–	–	8.4	21.4	–	–	–	–	–
Bt15 toxin (from UniProt P0A376 28-627) (ligand)	–	–	–	–	–	–	–	–	133	120	1.9	4.2	Rt2 (binding site concentration) (pmol/mg vesicle protein) [6]: 6.7; Kd [9]: 0.3 nM and 2.9 nM; Kd [11]: 3.7 nM; Rt (binding site concentration) (pmol/mg protein) [11]: 5.8; Rt1 (binding site concentration) (pmol/mg vesicle protein) [12]: 5.9
Bt2 toxin (from UniProt P0A370 29-607) (ligand)	1780	1820	0.6	9.7	0.4	3.4	2.8	12.9	6.7	> 1350	8.1	1.6	Kd [13]: 0.4 nM; Rt (binding site concentration) (pmol/mg vesicle protein) [13]: 3.4; LC50 (Bt2 sensitivity) [14]: 4 ng/cm^2; LC50 of the 20th generation [15]: 6400 µg/g; LC50 (Bt2 sensitivity) [16]: 20 ng/cm^2; Kd [17]: 0.4 nM; Rt (binding site concentration) (pmoles/mg vesicle protein) [17]: 20.8
Bt3 toxin (from UniProt P0A366 29-618) (ligand)	472	601	1.2	3.7	1.5	9.8	–	–	–	–	–	–	–

— US6855873
